# Patent US20100172907A1 (Hoffmann-La Roche, published 2010)
# Positions count from the first letter of the chain named. Groups on a side chain read outwards from the residue. No end group written: not given here. NSMP = not defined here
# T1: BSA-conjugated Aβ heptapeptide AEFRHDC (C-terminal Cys coupled to NSMP-activated BSA)
# T1 construct: also called Peptide 2-7
# T1 peptide: AEFRHDC
# T2: BSA-conjugated Aβ heptapeptide LVFFAEC (reading uncertain; also: BSA conjugate)
# T2 construct: also called Peptide 17-22
# T2 peptide: LVFFAEC([NSMP-BSA])
# T3: BSA-conjugated Aβ heptapeptide FFAEDVC (C-terminal Cys coupled to NSMP-activated BSA)
# T3 construct: also called Peptide 19-24
# T3 peptide: FFAEDVC
# T4: BSA-conjugated Aβ heptapeptide VFFAEDC (C-terminal Cys coupled to NSMP-activated BSA)
# T4 construct: also called Peptide 18-23
# T4 peptide: VFFAEDC
# B1: MS-Roche #3.4.H17 Fab (Fab, V domains shown)
# VH: QVQLVESGGGLVQPGGSLRLSCAASGFTFSSYAMSWVRQAPGKGLEWVSAISEFGQFIYYADSVKGRFTISRDNSKNTLYLQMNSLRAEDTAVYYCARLTHYARYYRYFDVWGQGTLVTVSS
# VL: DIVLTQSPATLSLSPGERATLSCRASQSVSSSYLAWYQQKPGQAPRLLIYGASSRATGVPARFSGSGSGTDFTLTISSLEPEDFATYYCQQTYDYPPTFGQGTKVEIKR
# B2: MS-Roche #7.12 Fab (Fab, V domains shown)
# VH: QVQLVESGGGLVQPGGSLRLSCAASGFTFSSYGMSWVRQAPGKGLEWVSNISGSGSSTYYADSVKGRFTISRDNSKNTLYLQMNSLRAEDTAVYYCARGKGNTHKPYGYVRYFDVWGQGTLVTVSS
# VL: DIVLTQSPATLSLSPGERATLSCRASQYVSSPYLAWYQQKPGQAPRLLISGSSNRATGVPARFSGSGSGTDFTLTISSLEPEDFAVYYCLQLYNIPNTFGQGTKVEIKR
# B3: MS-Roche #8.1.H1 Fab (Fab, V domains shown)
# VH: QVQLVESGGGLVQPGGSLRLSCAASGFTFSSYAMSWVRQAPGKGLEWVSAISRSGSNIYYADSVKGRFTISRDNSKNTLYLQMNSLRAEDTAVYYCARLLSRGYNGYYHKFDVWGQGTLVTVSS
# VL: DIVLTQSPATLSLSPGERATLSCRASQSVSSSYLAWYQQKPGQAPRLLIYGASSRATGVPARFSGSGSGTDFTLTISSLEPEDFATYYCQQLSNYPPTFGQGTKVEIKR
# B4: MS-Roche #8.2.L1 Fab (Fab, V domains shown)
# VH: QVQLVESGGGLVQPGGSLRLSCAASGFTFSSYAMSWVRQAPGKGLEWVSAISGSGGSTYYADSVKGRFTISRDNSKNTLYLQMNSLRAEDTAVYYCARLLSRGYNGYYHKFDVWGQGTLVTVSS
# VL: DIVLTQSPATLSLSPGERATLSCRASQRVSGRYLAWYQQKPGQAPRLLIYGASSRATGVPARFSGSGSGTDFTLTISSLEPEDFATYYCQQLSSYPPTFGQGTKVEIKR
# B5: MS-Roche #3.4.L11 Fab (Fab, V domains shown)
# VH: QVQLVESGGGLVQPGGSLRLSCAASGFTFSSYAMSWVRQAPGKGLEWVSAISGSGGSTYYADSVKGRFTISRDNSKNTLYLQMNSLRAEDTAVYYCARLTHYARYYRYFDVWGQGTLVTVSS
# VL: B4 VL with R28L, S30G, G31R, R32A, L92T, S93Y, S94D
# B6: MS-Roche #3.6.H2 Fab (Fab, V domains shown)
# VH: B1 VH with A50V, F54R, Q56I, F57N, I58T
# VL: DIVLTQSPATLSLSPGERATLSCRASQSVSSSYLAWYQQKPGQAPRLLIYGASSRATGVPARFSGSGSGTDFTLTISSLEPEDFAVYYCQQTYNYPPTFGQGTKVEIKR
# B7: MS-Roche #3.6.H6 Fab (Fab, V domains shown)
# VH: B1 VH with F54H, Q56T, F57N
# VL: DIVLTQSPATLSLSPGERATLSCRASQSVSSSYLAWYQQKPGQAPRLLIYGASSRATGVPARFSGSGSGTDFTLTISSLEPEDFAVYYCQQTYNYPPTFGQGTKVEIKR
# B8: MS-Roche #3.6.H1 Fab (Fab, V domains shown)
# VH: B1 VH with A50V, F54S, F57Y, I58K
# VL: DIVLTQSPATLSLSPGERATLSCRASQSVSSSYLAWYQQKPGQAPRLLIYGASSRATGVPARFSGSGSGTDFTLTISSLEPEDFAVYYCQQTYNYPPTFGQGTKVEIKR
# B9: MS-R IgG1 7.2.H4 (antibody, V domains shown)
# VH: B2 VH with Q3E, G33A, N50A, S52N, G53S, S54K, S57R, T58I
# VL: DIVLTQSPATLSLSPGERATLSCRASQSVSSSYLAWYQQKPGQAPRLLIYGASSRATGVPARFSGSGSGTDFTLTISSLEPEDFATYYCQQIYSFPHTFGQGTKVEIK
# notes: full-length human IgG1
# B10: MS-Roche #7.4H2×7.12L2 Fab (Fab, V domains shown)
# VH: QLVESGGGLVQPGGSLRLSCAASGFTFSSYAMSWVRQAPGKGLEWVSAINYNGARIYYADSVKGRFTISRDNSKNTLYLQMNSLRAEDTAVYYCARGKGNTHKPYGYVRYFDVWGQGTLVTVSS
# VL: B2 VL with Y28R, V29F, S30F, S31Y, P32K
# notes: cross-cloned Fab
# B11: MS-Roche #7.9H2×7.12L2(L1+2) Fab (Fab, V domains shown)
# VH: B10 VH with Y51A, N52D, A54N, I56K
# VL: B2 VL with Y28R, V29F, S30F, S31Y, P32K, V86T, L92I, I95M, N97I
# notes: VL assembled from the legend's definition and cloning strategy 3
# B12: MS-Roche #8.1H1×8.2L1 Fab (Fab, V domains shown)
# VH: QLVESGGGLVQPGGSLRLSCAASGFTFSSYAMSWVRQAPGKGLEWVSAISRSGSNIYYADSVKGRFTISRDNSKNTLYLQMNSLRAEDTAVYYCARLLSRGYNGYYHKFDVWGQGTLVTVSS
# VL: B4 VL
# notes: cross-cloned Fab
# B13: MS-Roche #7.11H1×7.2L1 Fab (Fab, V domains shown)
# VH: B10 VH with A48G, Y51A, N52A, A54F, I56T
# VL: B4 VL with R28Y, S30D, G31R, R32T, L92I, S93Y, Y95F, P97H
# notes: cross-cloned Fab; VH entry starts at QLVESGG
# B14: MS-Roche #3.4H7×3.4L9 Fab (Fab, V domains shown)
# VH: QLVESGGGLVQPGGSLRLSCAASGFTFSSYAMSWVRQAPGKGLEWVSVISETGKNIYYADSVKGRFTISRDNSKNTLYLQMNSLRAEDTAVYYCARLTHYARYYRYFDVWGQGTLVTVSS
# VL: B4 VL with Q27R, V29I, S30H, G31V, R32Y, L92T, S93Y, S94D
# notes: cross-cloned Fab
# B15: MS-Roche #3.6H5×3.6L2 Fab (Fab, V domains shown)
# VH: B14 VH with V48A, T52S, N55T, I56K
# VL: B4 VL with R28F, V29L, G31R, R32Y, T86V, L92T, S93Y, S94N
# notes: as for B13
# B16: MS-Roche #7.2H2×7.2L1 Fab (Fab, V domains shown)
# VH: B10 VH with Y51G, N52T, A54M, R55K, I56K
# VL: B4 VL with R28Y, S30D, G31R, R32T, L92I, S93Y, Y95F, P97H
# notes: cross-cloned Fab
# B17: MS-Roche #3.4H1×3.4L9 Fab (Fab, V domains shown)
# VH: B14 VH with V48A, G53S, K54I, N55R, I56K
# VL: B4 VL with Q27R, V29I, S30H, G31V, R32Y, L92T, S93Y, S94D
# notes: cross-cloned Fab
# B18: MS-Roche #7.11H1×7.11L1 Fab (Fab, V domains shown)
# VH: B10 VH with A48G, Y51A, N52A, A54F, I56T
# VL: B4 VL with V29I, S30L, G31R, R32I, L92V, S93Y, Y95P, P97H
# notes: as for B13
# B19: MS-Roche #7.4H2×7.2L1 Fab (Fab, V domains shown)
# VH: B10 VH
# VL: B4 VL with R28Y, S30D, G31R, R32T, L92I, S93Y, Y95F, P97H
# notes: as for B13
# B20: MS-Roche #3.4H3×3.4L9 Fab (Fab, V domains shown)
# VH: B14 VH with E51Q, K54R, N55K
# VL: B4 VL with Q27R, V29I, S30H, G31V, R32Y, L92T, S93Y, S94D
# notes: cross-cloned Fab
# B21: MS-Roche #3.6H5×3.6L1 Fab (Fab, V domains shown)
# VH: B14 VH with V48A, T52S, N55T, I56K
# VL: B4 VL with R28F, V29I, S30Q, G31R, R32F, T86V, L92T, S93Y, S94N
# notes: cross-cloned Fab
# B22: MS-Roche #7.11H2×7.2L1(L1) Fab (Fab, V domains shown)
# VH: B10 VH with Y51A, A54Y, R55K, I56K
# VL: B4 VL with R28Y, S30D, G31R, R32T, L92I, S93Y, Y95F, P97H
# B23: MS-Roche #3.4H3×3.4L7 Fab (Fab, V domains shown)
# VH: B14 VH with E51Q, K54R, N55K
# VL: B4 VL with V29L, S30G, G31R, R32L, L92T, S93Y, S94D
# notes: cross-cloned Fab
# B24: MS-Roche #3.4H7×3.4L7 Fab (Fab, V domains shown)
# VH: B14 VH
# VL: B4 VL with V29L, S30G, G31R, R32L, L92T, S93Y, S94D
# notes: cross-cloned Fab
# B25: MS-Roche #3.3H1×3.4L9 Fab (Fab, V domains shown)
# VH: B14 VH with T52K, G53S, K54R, N55F
# VL: B4 VL with Q27R, V29I, S30H, G31V, R32Y, L92T, S93Y, S94D
# notes: cross-cloned Fab
# Target: T1, BSA-conjugated Aβ heptapeptide AEFRHDC
# Test: ELISA
# Experimental: (§1) 50 μl of NSMP activated BSA (6.7 mg/ml) was diluted with 50 μl of PBS, 0.1% sodium azide and 10 μl of peptide solution (1 mM in DMSO) was added. As negative control activated BSA was mock-treated without peptide addition. After 4 hrs at room temperature the reaction was stopped by addition of 10 μl of 10 mM Cystein. An aliquot of the conjugate reaction mixture was diluted 1:100 with 0.1M sodium bicarbonate buffer and immediately filled into the wells (100 μl) of ELISA plates (Nunc Immuno-Plate). After standing 16 hrs at 4° C. 100 μl blocking buffer (as above) was added to each well and incubated for another 30 minutes. The plates were washed with 2×300 μl/well TBST (as above) and filled with 100 μl antibody at 10 μg/ml or 2 μg/ml in blocking buffer. The plates were kept 16 hours at 4° C. and washed with 2×300 μl TBST. 100 μl/well HRP-conjugated anti-human Ig H+L (Pierce, dilution 1:1000 with blocking buffer) was added and incubated for 1 hour at ambient temperature. The plates were washed with 3×300 μl/well TBST. Colour development was started by addition of 100 μl tetra-methyl benzidine/hydrogen peroxide reagent.
# 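Throughout, for OD ratio 17-22/BSA: ELISA of antibody at 10 or 2 µg/ml binding plate-coated BSA–peptide conjugates, detected with HRP anti-human Ig and TMB colour, mock-treated BSA without peptide as negative control.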
# 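Throughout, for OD ratio 19-24/BSA: ELISA of antibody at 10 or 2 µg/ml binding plate-coated BSA–peptide conjugates, detected with HRP anti-human Ig and TMB colour, mock-treated BSA without peptide as negative control.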
# 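Throughout, for OD ratio 2-7/BSA: ELISA of antibody at 10 or 2 µg/ml binding plate-coated BSA–peptide conjugates, detected with HRP anti-human Ig and TMB colour, mock-treated BSA without peptide as negative control.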
# 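Throughout, for Peptide-ratio 17-22/2-7: ELISA of antibody at 10 or 2 µg/ml binding plate-coated BSA–peptide conjugates, detected with HRP anti-human Ig and TMB colour, mock-treated BSA without peptide as negative control.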
row,OD ratio 2-7/BSA,Binder
1,28,B1
2,38,B2
3,29,B3
4,26,B4
5,31,B5
6,19,B6
7,25,B7
8,23,B8

# Target: T2, BSA-conjugated Aβ heptapeptide LVFFAEC
# Test: ELISA
# Experimental: as §1
OD ratio 17-22/BSA,Peptide-ratio 17-22/2-7,Binder
5,0.18,B1
6,0.16,B2
22,0.77,B3
15,0.6,B4
6,0.19,B5
2,0.11,B6
1,0.04,B7
3,0.13,B8

# Target: T3, BSA-conjugated Aβ heptapeptide FFAEDVC
# Test: ELISA
# Experimental: as §1
OD ratio 19-24/BSA,Peptide-ratio 19-24/2-7,Binder
11,0.39,B1
7,0.18,B2
25,0.86,B3
31,1.22,B4
5,0.16,B5
3,0.16,B6
7,0.28,B7
5,0.22,B8

# Target: T4, BSA-conjugated Aβ heptapeptide VFFAEDC
# Test: ELISA
# Experimental: as §1
OD ratio 18-23/BSA,Peptide-ratio 18-23/2-7,Binder
12,0.43,B1
8,0.21,B2
25,0.88,B3
32,1.26,B4
20,0.65,B5
8,0.42,B6
4,0.16,B7
13,0.57,B8

# Target: T5, Aβ (1-42) peptide (human)
# T5 construct: also called Aβ1-42 fibers; Aβ4
# Test: SPR Scatchard, higher affinity (bivalent)
# Experimental: (§2) Binders with fast kinetics were analyzed by fitting the concentration-dependent sensor responses at equilibrium (adsorption-isotherms). KD values were calculated from the Biacore sensograms based on the total Fab concentration as determined by a protein assay. […] Briefly, time-dependent protein binding to Aβ1-40 fibers immobilized on the Biacore chip was measured during the association phase under mass-limited conditions at different flow rates of the analyte solution.
# (§3) KD values of IgG binding to Aβ1-40 and Aβ1-42 fibers were determined in the Biacore. Briefly, a kinetic model for the stepwise formation of a bivalent complex was used, and KD values were calculated by Scatchard type analysis of equilibrium binding. Due to the very slow association process at low antibody concentration (several hours to reach equilibrium) equilibrium binding data were obtained by extrapolation of the association curves to long time intervals. The on- and off rates for the formation of the monovalent and bivalent complex were determined via the curve fit procedure and used for the extrapolation. Based on these Req values a Scatchard analysis was performed and KD values for the formation of the monovalent and the bivalent complex were determined.
row,Kd [nM],Binder
1,0.1 to 0.66,B9

# Target: T6, human Aβ (1-40) peptide (human)
# T6 construct: also called Aβ1-40 fibers
# Test: SPR Scatchard, higher affinity (bivalent)
# Experimental: as §2, §3
row,Kd [nM],Binder
1,0.09 to 0.3,B9

# Target: T5, Aβ (1-42) peptide
# Test: SPR, kinetic fit, immobilized fibers;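 note: surface plasmon resonance on a Biacore chip bearing in vitro formed Aβ1-40 or Aβ1-42 fibers, KD taken as koff/kon by fitting time-resolved sensor responses, based on total Fab concentration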
# Experimental: (§4) Biacore2000 and Biacore3000 instruments were used for these measurements. Aβ1-40 and Aβ1-42 fibers were generated in vitro by incubation of synthetic peptides at a concentration of 200 μg/ml in 10 mM Na-acetate buffer (pH 4.0) for three days at 37° C. […] For binders with slow kinetics KD values were calculated by curve fitting of the time-dependent sensor responses, i.e. from the ratio of koff/kₒₙ. Binders with fast kinetics were analyzed by fitting the concentration-dependent sensor responses at equilibrium (adsorption-isotherms). KD values were calculated from the Biacore sensograms based on the total Fab concentration as determined by a protein assay. […] Briefly, time-dependent protein binding to Aβ1-40 fibers immobilized on the Biacore chip was measured during the association phase under mass-limited conditions at different flow rates of the analyte solution.
row,Kd [nM],Binder
1,1.8,B10
2,0.4,B11
3,1.6,B12
4,1.39,B13
5,3.51,B14
6,0.84,B15
7,1.43,B16
8,0.5,B17
9,0.47,B18
10,1.4,B19
11,0.93,B20
12,1.04,B21
13,0.6,B22
14,0.92,B23
15,1.23,B24
16,2.97,B25

# Target: T6, human Aβ (1-40) peptide
# Test: SPR, kinetic fit, immobilized fibers;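 note: surface plasmon resonance on a Biacore chip bearing in vitro formed Aβ1-40 or Aβ1-42 fibers, KD taken as koff/kon by fitting time-resolved sensor responses, based on total Fab concentration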
# Experimental: as §4
row,Kd [nM],Binder
1,1.4,B10
2,0.4,B11
3,1.3,B12
4,1.75,B13
5,2.66,B14
6,1.26,B15
7,1.29,B16
8,0.25,B17
9,0.41,B18
10,1.4,B19
11,1.05,B20
12,1.25,B21
13,1,B22
14,0.92,B23
15,1.19,B24
16,2.16,B25

# Target: T5, Aβ (1-42) peptide
# Test: SPR, immobilized fibers;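 note: biacore SPR using in vitro grown Aβ1-40 or Aβ1-42 fibrils immobilized on the chip with Fab analytes, KD from koff/kon fits or equilibrium isotherms based on total Fab concentration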
# Experimental: as §4
row,Kd [nM],Binder
1,4.3,B1
2,60,B2
3,9.2,B3
4,3.7,B4
5,2.6,B5
6,54,B6
7,11.8,B7
8,23.1,B8

# Target: T6, human Aβ (1-40) peptide
# Test: SPR, immobilized fibers;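 note: biacore SPR using in vitro grown Aβ1-40 or Aβ1-42 fibrils immobilized on the chip with Fab analytes, KD from koff/kon fits or equilibrium isotherms based on total Fab concentration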
# Experimental: as §4
row,Kd [nM],Binder
1,2,B1
2,28,B2
3,13.6,B3
4,4.8,B4
5,5.3,B5
6,19.8,B6
7,36,B7
8,18.9,B8
